First the molecules themselves.
B1: LINE1-mini (parent)
chain: GGCAGAGCUCAACACAGCGUGGCAAAGUGGCUGUGGCUAGACUGCC

The variants in this data set derive from B1. Kind of data set: self-cleavage, relative activity (ratio to wild type); higher = more cleavage; in vitro, sequencing; the parent is a self-cleaving ribozyme.
As for GGCAGAGAUCCACACAGCGUGGCAAAGUGGCUGUGGCUAGACUGCC, the self-cleavage is 0.05.

Regarding GGCAGAGAUCUACACAGCGUGGCAAAGUGGCUGUGGCUAGACUGCC, the self-cleavage was 0.03.

As for GGCAGAGAUCGACACAGCGUGGCAAAGUGGCUGUGGCUAGACUGCC, the self-cleavage came to 0.04.

Take GGCAGAUCUCAACACAGCAUGGCAAAGUGGCUGUGGCUAGACUGCC: the self-cleavage came out at 0.07.

For the variant GGCAGAUCUCAACACAGCUUGGCAAAGUGGCUGUGGCUAGACUGCC, the self-cleavage came to 0.05.

As to GGCAGAUCUCAACACAGCCUGGCAAAGUGGCUGUGGCUAGACUGCC, the self-cleavage is 0.05.

Turning to GGCAGAUCUAAACACAGCGUGGCAAAGUGGCUGUGGCUAGACUGCC, the self-cleavage was determined as 0.04.

For the variant GGCAGAUCUUAACACAGCGUGGCAAAGUGGCUGUGGCUAGACUGCC, the self-cleavage was found to be 0.04.

In the case of GGCAGAUCUGAACACAGCGUGGCAAAGUGGCUGUGGCUAGACUGCC, the self-cleavage was found to be 0.03.

In the case of GGCAGAUCUCAACACAGCGUGGCAAAGUGGCCGUGGCUAGACUGCC, the self-cleavage is 0.22.

Regarding GGCAGAUCUCAACACAGCGUGGCAAAGUGGCGGUGGCUAGACUGCC, the self-cleavage came out at 0.11.

With GGCAGAUCUCAACACAGCGUGGCAAAGUGGCAGUGGCUAGACUGCC, the self-cleavage is 0.08.

On to GGCAGAUCUCAACACAGCGUGGGAAAGUGGCUGUGGCUAGACUGCC, for which the self-cleavage came out at 0.08.

For GGCAGAUCUCAACACAGCGUGGUAAAGUGGCUGUGGCUAGACUGCC, the self-cleavage is 0.06.

Turning to GGCAGAUCUCAACACAGCGUGGAAAAGUGGCUGUGGCUAGACUGCC, the self-cleavage amounted to 0.06.

For the variant GGCAGAUCUCAACACAGCGUGGCAAAGUGGCUGUGGCGAGACUGCC, the self-cleavage was 0.03.

With GGCAGAUCUCAACACAGCGUGGCAAAGUGGCUGUGGCAAGACUGCC, the self-cleavage worked out at 0.04.

Turning to GGCAGAUCUCAACACAGCGUGGCAAAGUGGCUGUGGCCAGACUGCC, the self-cleavage turned out to be 0.05.

For GGCAGAGAUCAACACAGCGUGGCAAAGUGGCUGUGGCUAGACUGCC, the self-cleavage was 0.29.

As for GGCAGAUCACAACACAGCGUGGCAAAGUGGCUGUGGCUAGACUGCC, the self-cleavage is 0.23.

With GGCAGAUCCCAACACAGCGUGGCAAAGUGGCUGUGGCUAGACUGCC, the self-cleavage came out at 0.04.

In the case of GGCAGAUCGCAACACAGCGUGGCAAAGUGGCUGUGGCUAGACUGCC, the self-cleavage came out at 0.09.

For GGCAGAUCUCAACACAGCGUGGCAAAGUGGCUUUGGCUAGACUGCC, the self-cleavage came out at 0.13.

For GGCAGAUCUCAACACAGCGUGGCAAAGUGGCUAUGGCUAGACUGCC, the self-cleavage stood at 0.13.

For GGCAGAUCUCAACACAGCGUGGCAAAGUGGCUCUGGCUAGACUGCC, the self-cleavage was found to be 0.15.

For GGCAGAUCUCAACACAUCGUGGCAAAGUGGCUGUGGCUAGACUGCC, the self-cleavage was found to be 0.12.

For the variant GGCAGAUCUCAACACACCGUGGCAAAGUGGCUGUGGCUAGACUGCC, the self-cleavage turned out to be 0.07.

Regarding GGCAGAUCUCAACACAACGUGGCAAAGUGGCUGUGGCUAGACUGCC, the self-cleavage was found to be 0.08.

With GGCAGAUCUCAACACAGCGUGGCAAAGUGGCUGUGGCUAAACUGCC, the self-cleavage was 0.16.

GGCAGAUCUCAACACAGCGUGGCAAAGUGGCUGUGGCUACACUGCC: the self-cleavage was determined as 0.12.

As for GGCAGAUCUCAACACAGCGUGGCAAAGUGGCUGUGGCUAUACUGCC, the self-cleavage is 0.18.

As for GGCAGAGAUCAUCACAGCGUGGCAAAGUGGCUGUGGCUAGACUGCC, the self-cleavage came to 0.23.

Take GGCAGAGAUCACCACAGCGUGGCAAAGUGGCUGUGGCUAGACUGCC: the self-cleavage stood at 0.04.

For GGCAGAGAUCAGCACAGCGUGGCAAAGUGGCUGUGGCUAGACUGCC, the self-cleavage came to 0.11.

As to GGCAGAUCUCAACACAGAGUGGCAAAGUGGCUGUGGCUAGACUGCC, the self-cleavage came to 0.08.

On to GGCAGAUCUCAACACAGUGUGGCAAAGUGGCUGUGGCUAGACUGCC, for which the self-cleavage came out at 0.14.

As for GGCAGAUCUCAACACAGGGUGGCAAAGUGGCUGUGGCUAGACUGCC, the self-cleavage was determined as 0.14.

As to GGCAGAUCUCAACACAGCGUGGCAAAGUGGCUGUGGAUAGACUGCC, the self-cleavage was determined as 0.05.

Turning to GGCAGAUCUCAACACAGCGUGGCAAAGUGGCUGUGGGUAGACUGCC, the self-cleavage worked out at 0.01.

In the case of GGCAGAUCUCAACACAGCGUGGCAAAGUGGCUGUGGUUAGACUGCC, the self-cleavage was 0.03.

Take GGCAGAUCUCAACACAGCGUCGCAAAGUGGCUGUGGCUAGACUGCC: the self-cleavage is 0.08.

Regarding GGCAGAUCUCAACACAGCGUAGCAAAGUGGCUGUGGCUAGACUGCC, the self-cleavage is 0.14.

On to GGCAGAUCUCAACACAGCGUUGCAAAGUGGCUGUGGCUAGACUGCC, for which the self-cleavage is 0.1.

With GGCAGAUCUCAACACAGCGUGACAAAGUGGCUGUGGCUAGACUGCC, the self-cleavage was found to be 0.08.

For the variant GGCAGAUCUCAACACAGCGUGCCAAAGUGGCUGUGGCUAGACUGCC, the self-cleavage turned out to be 0.04.

In the case of GGCAGAUCUCAACACAGCGUGUCAAAGUGGCUGUGGCUAGACUGCC, the self-cleavage is 0.14.

As for GGCAGAGAUCAACACAGCGUGGCCAAGUGGCUGUGGCUAGACUGCC, the self-cleavage turned out to be 0.31.

As to GGCAGAGAUCAACACAGCGUGGCGAAGUGGCUGUGGCUAGACUGCC, the self-cleavage stood at 0.38.

Turning to GGCAGAUCUCAACACAGCGUGGCAAAGUGGCUGUUGCUAGACUGCC, the self-cleavage was found to be 0.1.

Consider GGCAGAUCUCAACACAGCGUGGCAAAGUGGCUGUAGCUAGACUGCC, for which the self-cleavage turned out to be 0.1.

As for GGCAGAUCUCAACACAGCGUGGCAAAGUGGCUGUCGCUAGACUGCC, the self-cleavage amounted to 0.08.

On to GGCAGAUCUCAAAACAGCGUGGCAAAGUGGCUGUGGCUAGACUGCC, for which the self-cleavage worked out at 0.14.

Consider GGCAGAUCUCAAGACAGCGUGGCAAAGUGGCUGUGGCUAGACUGCC, for which the self-cleavage was determined as 0.08.

With GGCAGAUCUCAAUACAGCGUGGCAAAGUGGCUGUGGCUAGACUGCC, the self-cleavage worked out at 0.15.

Take GGCAGAGAUCAACCCAGCGUGGCAAAGUGGCUGUGGCUAGACUGCC: the self-cleavage turned out to be 0.18.

Take GGCAGAGAUCAACGCAGCGUGGCAAAGUGGCUGUGGCUAGACUGCC: the self-cleavage is 0.56.

Source of the values: the RNAGym collection of RNA variant scans (doi:10.7554/elife.90254).
